± gives the standard error. Variants at the floor of the assay were thinned out.
B1: glmS ribozyme (parent)
chain: AUAAAAGCGCCAGAACUACAGAAAUGUAGUUGACGAGGAGGAGGUUUAUCGAAUUUUCGGCGGAUGCCUCCAAA

Key:
Conditions in all cases: with glucosamine-6-phosphate
[1] = variants of: B1; assay: self-cleavage kobs at 40 uM GlcN6P; higher = faster cleavage; RNA array
Outline: (§1)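 Tracking of barcoded ribozyme variants used a hybridised Cy3 probe at 37 °C, after in situ transcription by E. coli RNA polymerase on sequenced MiSeq chips. The flowed solution held 40 μM to 10 mM glucosamine-6-phosphate in HEPES/KCl/Mg(OAc)2 buffer, and imaging ran over ~14 h. kobs was taken from exponential decay fits of normalised per-tile medians, and kcat and KM from weighted Michaelis–Menten fits.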

[2] = variants of: B1; assay: self-cleavage kobs at 160 uM GlcN6P; higher = faster cleavage; RNA array
Outline: as §1

[3] = variants of: B1; assay: self-cleavage kobs at 640 uM GlcN6P; higher = faster cleavage; RNA array
Outline: as §1

[4] = variants of: B1; assay: self-cleavage kobs at 2500 uM GlcN6P; higher = faster cleavage; RNA array
Outline: as §1

[5] = variants of: B1; assay: self-cleavage kobs at 10000 uM GlcN6P; higher = faster cleavage; RNA array
Outline: as §1

In the case of AUAAAAGCGCCAGAACUACAGAAAUGUAGUUGACUAGGAGGAGGUUUAUCGAAUUUUCGUCGGAUGCCUCCAAA [G35U G60U], the “self-cleavage kobs at 40 uM GlcN6P” value [1] is reported as < 1e-05 s⁻¹, the “self-cleavage kobs at 160 uM GlcN6P” value [2] is reported as < 1e-05 s⁻¹ and the “self-cleavage kobs at 640 uM GlcN6P” value [3] is reported as < 1e-05 s⁻¹. The “self-cleavage kobs at 2500 uM GlcN6P” value [4] was < 1e-05 s⁻¹ and the “self-cleavage kobs at 10000 uM GlcN6P” value [5] was < 1e-05 s⁻¹.

AUAAAAGCGCCAGAACUACAGAAAUGUAGUUGACGAGGAGGAGGUUUAUCGAAUUCUCGUCGGAUGCCUCCAAA [U56C G60U] was tested, and the “self-cleavage kobs at 40 uM GlcN6P” value [1] was < 1e-05 s⁻¹, the “self-cleavage kobs at 160 uM GlcN6P” value [2] was < 1e-05 s⁻¹ and the “self-cleavage kobs at 640 uM GlcN6P” value [3] was < 1e-05 s⁻¹. The “self-cleavage kobs at 2500 uM GlcN6P” value [4] was < 1e-05 s⁻¹ and the “self-cleavage kobs at 10000 uM GlcN6P” value [5] was < 1e-05 s⁻¹.

AUAAAAACGCCAGAACUACAGAAAUGUAGUUGACGAGGAAGAGGUUUAUCGAGUUUUCGCCGGAUGCUUCCAAA [G7A G40A A53G G60C C68U] was tested, and the “self-cleavage kobs at 40 uM GlcN6P” value [1] was < 1e-05 s⁻¹, the “self-cleavage kobs at 640 uM GlcN6P” value [3] was < 1e-05 s⁻¹ and the “self-cleavage kobs at 2500 uM GlcN6P” value [4] was < 1e-05 s⁻¹.

For AUAAAAGCGCCAGAACUACAGAAAUGUACUUGACGAGGAGGAGGUUUAUCGAAUUUUGGGCGGAUGCCUCCAAA [G29C C58G], the “self-cleavage kobs at 40 uM GlcN6P” value [1] was < 1e-05 s⁻¹, the “self-cleavage kobs at 2500 uM GlcN6P” value [4] was 6.23e-05 ± 2.1e-05 s⁻¹ and the “self-cleavage kobs at 10000 uM GlcN6P” value [5] was 4.93e-05 ± 1.5e-05 s⁻¹.

AUAAAAGCGCCAGAACUACAGAAAUGUAGUUGACGAGGAGGAGGUUAAUCGCAUUUUCGGCGGAUGCCUCCAAA [U47A A52C] was tested, and the “self-cleavage kobs at 40 uM GlcN6P” value [1] was < 1e-05 s⁻¹.

In the case of AUAAAAGCGCCCGCACUACAGAAAUGUAGUUGACGAGGAGGAGGUUUAUCGAAUUUUCGGCGGAUGCCUUCAAA [A12C A14C C70U], the “self-cleavage kobs at 40 uM GlcN6P” value [1] is reported as < 1e-05 s⁻¹, the “self-cleavage kobs at 2500 uM GlcN6P” value [4] is reported as 9.06e-05 ± 1.4e-05 s⁻¹ and the “self-cleavage kobs at 10000 uM GlcN6P” value [5] is reported as 8.48e-05 ± 1.8e-05 s⁻¹.

For AUAAAAGCGUCAGAACUACAGAAAUGUAGUUGACGAGGAGGAGGUUUAUCGAAUUUUCGGCUGAUGCCUCCAAA [C10U G62U], the “self-cleavage kobs at 40 uM GlcN6P” value [1] was < 1e-05 s⁻¹, the “self-cleavage kobs at 160 uM GlcN6P” value [2] was < 1e-05 s⁻¹ and the “self-cleavage kobs at 640 uM GlcN6P” value [3] was < 1e-05 s⁻¹. For the same variant, the “self-cleavage kobs at 2500 uM GlcN6P” value [4] was < 1e-05 s⁻¹ and the “self-cleavage kobs at 10000 uM GlcN6P” value [5] was < 1e-05 s⁻¹.

With AUAAAAGCGCCAGAACUACAGAAAUGUAGUUGACGACGAGGAGGUUUAUCGAAUUUUCAGCGGAUGCCUCCAAA [G37C G59A] the “self-cleavage kobs at 40 uM GlcN6P” value [1] was < 1e-05 s⁻¹, the “self-cleavage kobs at 160 uM GlcN6P” value [2] was < 1e-05 s⁻¹ and the “self-cleavage kobs at 10000 uM GlcN6P” value [5] was < 1e-05 s⁻¹.

With AUAAAAGCGCCAGAACUACAGAAAUGUAGUUGACGAGGAGGAGGUUUAUCGCAUUAUCGGCGGAUGCCUCCAAA [A52C U56A] the “self-cleavage kobs at 40 uM GlcN6P” value [1] was < 1e-05 s⁻¹ and the “self-cleavage kobs at 640 uM GlcN6P” value [3] was < 1e-05 s⁻¹.

For AUAAAAGCGCCAGAGCUACAGAAAUGUAGUUGACGAGGAGGAGGUUUAUCGAAUUUUCGGCGGGUGCCUCCAAA [A15G A64G], the “self-cleavage kobs at 40 uM GlcN6P” value [1] was 0.000819 ± 0.00013 s⁻¹, the “self-cleavage kobs at 160 uM GlcN6P” value [2] was 0.00196 ± 0.00048 s⁻¹ and the “self-cleavage kobs at 640 uM GlcN6P” value [3] was 0.0063 ± 0.0012 s⁻¹. The “self-cleavage kobs at 2500 uM GlcN6P” value [4] was 0.00698 ± 0.0018 s⁻¹ and the “self-cleavage kobs at 10000 uM GlcN6P” value [5] was 0.0604 ± 0.017 s⁻¹.

With AUAAAAGGACCAGAACUACAGAAAUGUAGUUGACGAGGUGGAGGUUGAUCGAAUUUUCGGCGGAUGCUUCCAAA [C8G G9A A39U U47G C68U] the “self-cleavage kobs at 40 uM GlcN6P” value [1] was < 1e-05 s⁻¹.

AUAAAAGCGCCAGAACUACAGAAAUGUAGUUGACGAGGAGGAGGUAUAUCGAAUUUUUGGCGGAUGCCUCCAAA [U46A C58U] was tested, and the “self-cleavage kobs at 40 uM GlcN6P” value [1] was < 1e-05 s⁻¹, the “self-cleavage kobs at 160 uM GlcN6P” value [2] was < 1e-05 s⁻¹ and the “self-cleavage kobs at 640 uM GlcN6P” value [3] was < 1e-05 s⁻¹.

AUAAAAGCGCCAGAACUACAGAAAUGUAGUGGACGAGGCGGAGCUUUAUCGAAUUUUCGGCGGAUGCCUCCAAA [U31G A39C G44C] was tested, and the “self-cleavage kobs at 40 uM GlcN6P” value [1] was < 1e-05 s⁻¹.

In the case of AUAAAAGCGCCAGCCCUACAGAAAUGUAGUUGACGAGGAGGAGGUUUAUGGAAUUUUCGCCGGAUGUCUCCAAA [A14C A15C C50G G60C C67U], the “self-cleavage kobs at 40 uM GlcN6P” value [1] is reported as 6.66e-05 ± 3e-05 s⁻¹.

In the case of AUAAAAGGGCCAGAACUACAGAAAUGUAGUUGACGAGGAGGAGGUUUAUCGAAUCUUCGGUGGAUGCCUCCAAA [C8G U55C C61U], the “self-cleavage kobs at 40 uM GlcN6P” value [1] is reported as < 1e-05 s⁻¹, the “self-cleavage kobs at 640 uM GlcN6P” value [3] is reported as < 1e-05 s⁻¹ and the “self-cleavage kobs at 2500 uM GlcN6P” value [4] is reported as < 1e-05 s⁻¹.

With AUAAAAGCGCCAGAACUACAGAAAUGUAGUUCACGAGGAGAAGGUUUAUCGCAUUUUCGGCGGAUGCCUCCAAA [G32C G41A A52C] the “self-cleavage kobs at 40 uM GlcN6P” value [1] was < 1e-05 s⁻¹, the “self-cleavage kobs at 160 uM GlcN6P” value [2] was < 1e-05 s⁻¹ and the “self-cleavage kobs at 2500 uM GlcN6P” value [4] was < 1e-05 s⁻¹.

AUAAAAGCGCCAGAACUACAGAAAUGUAGUUGACGAGGAGGAGGUUUAUCGAAUUAUCGGCUGAUGCCUCCAAA [U56A G62U] was tested, and the “self-cleavage kobs at 40 uM GlcN6P” value [1] was < 1e-05 s⁻¹ and the “self-cleavage kobs at 640 uM GlcN6P” value [3] was < 1e-05 s⁻¹.

For AUAAAAUCGCCAGAACUACAGAAAUGUAGUUGACUAGUAGGAGGUUUAUCGAAUUUUCCGCGGAUGCCUCCAAA [G7U G35U G38U G59C], the “self-cleavage kobs at 40 uM GlcN6P” value [1] was < 1e-05 s⁻¹ and the “self-cleavage kobs at 10000 uM GlcN6P” value [5] was < 1e-05 s⁻¹.

In the case of AUAAAAGCGCCAGAACUACAGAAAUGUAGUUGACGAUGAGAAGGUUUAUCGAAUUUUCGGCGGAUGCCUCCAAA [G37U G41A], the “self-cleavage kobs at 40 uM GlcN6P” value [1] is reported as < 1e-05 s⁻¹, the “self-cleavage kobs at 160 uM GlcN6P” value [2] is reported as < 1e-05 s⁻¹ and the “self-cleavage kobs at 640 uM GlcN6P” value [3] is reported as < 1e-05 s⁻¹. For the same variant, the “self-cleavage kobs at 10000 uM GlcN6P” value [5] was < 1e-05 s⁻¹.

In the case of AUAAAAGCGCCAGAACUACAGAAAUGUAGUUGACGAGGAGGAGGUUUAUCGAAUUUUCGGCGUAUCCCUCCAAA [G63U G66C], the “self-cleavage kobs at 40 uM GlcN6P” value [1] is reported as < 1e-05 s⁻¹, the “self-cleavage kobs at 160 uM GlcN6P” value [2] is reported as < 1e-05 s⁻¹ and the “self-cleavage kobs at 2500 uM GlcN6P” value [4] is reported as < 1e-05 s⁻¹. For the same variant, the “self-cleavage kobs at 10000 uM GlcN6P” value [5] was < 1e-05 s⁻¹.

With AUAAAAGCACCAGCACUACAGAAAUGUAGUUGACGAGGAGGAGUUUCAUCGAAUUUUCGGCGGAUGCCUCCAAA [G9A A14C G44U U47C] the “self-cleavage kobs at 40 uM GlcN6P” value [1] was < 1e-05 s⁻¹.

AUAAAAGCGCCUGAACUACAGAAAUGUAGUUGACGAGGUGGAGGUUUAUCGAACUUUCGGCGGAUGCCUCCAAA [A12U A39U U54C] was tested, and the “self-cleavage kobs at 40 uM GlcN6P” value [1] was 0.000713 ± 0.00016 s⁻¹ and the “self-cleavage kobs at 10000 uM GlcN6P” value [5] was 0.0366 ± 0.01 s⁻¹.

In the case of AUAAAAGCGCCAGAACUACAGAAAUGUAUUUGAAGAGGAGGAGGUUUAUCGAAUUUUCGGUGGAUGCCUCCAAA [G29U C34A C61U], the “self-cleavage kobs at 40 uM GlcN6P” value [1] is reported as < 1e-05 s⁻¹ and the “self-cleavage kobs at 640 uM GlcN6P” value [3] is reported as < 1e-05 s⁻¹.

With AUAAAAUCGCCAGAACUACAGAAAUGUAGUUGACCAGGAGGAGGUUUAUCGAAUUUUCGGCGGAUGCCUCCAAA [G7U G35C] the “self-cleavage kobs at 40 uM GlcN6P” value [1] was < 1e-05 s⁻¹, the “self-cleavage kobs at 160 uM GlcN6P” value [2] was < 1e-05 s⁻¹ and the “self-cleavage kobs at 640 uM GlcN6P” value [3] was < 1e-05 s⁻¹. For the same variant, the “self-cleavage kobs at 2500 uM GlcN6P” value [4] was < 1e-05 s⁻¹ and the “self-cleavage kobs at 10000 uM GlcN6P” value [5] was < 1e-05 s⁻¹.

With AUAAAAGCGCGAGAACUACAGAAAUGUAGUUGACGAGGGGGAGGUGUAUCGAAUUUUCGGUGGACGCAUCCAAA [C11G A39G U46G C61U U65C C68A] the “self-cleavage kobs at 40 uM GlcN6P” value [1] was < 1e-05 s⁻¹ and the “self-cleavage kobs at 10000 uM GlcN6P” value [5] was < 1e-05 s⁻¹.

With AUAAAAGCGCCAGAACUACAGAAAUGUAGUUGACCAGGAGGAGGUUUAUCGAAUUUUCGGCGGAUGCAUCUAAA [G35C C68A C71U] the “self-cleavage kobs at 40 uM GlcN6P” value [1] was < 1e-05 s⁻¹, the “self-cleavage kobs at 640 uM GlcN6P” value [3] was < 1e-05 s⁻¹ and the “self-cleavage kobs at 2500 uM GlcN6P” value [4] was < 1e-05 s⁻¹. For the same variant, the “self-cleavage kobs at 10000 uM GlcN6P” value [5] was < 1e-05 s⁻¹.

— the supplement of paper PMC7125110
